± gives the uncertainty stated by the source.
Assay: protein stability index of a GFP-peptide fusion (yeast GPS) (PSI 1-4); higher = more stable; sorted into four equal gates, so the index is relative within each strain
Details: doa10∆
Procedure, shortened: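 Peptides tiling yeast proteins in 17-residue segments were fused downstream of GFP, with Cherry expressed from the same plasmid. As a pooled library in yeast, mid-log cultures grown in leucine-free medium were sorted into four equal gates by GFP/Cherry fluorescence ratio. Gate plasmids were PCR-amplified and Illumina-sequenced, and barcodes linked reads to strains. Each peptide received a protein stability index equal to the sum of each gate's read frequency times its gate number.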

| Sequence | protein stability index |
| --- | --- |
| YENKDNLTAGIIVAGYD [PRE3] | 2.71 ± 0.047 |
| YERRFGPYFVGPVVAGI [PUP3] | 3.25 ± 0.22 |
| YESQTFSSKNEWRKSAI [PRP8] | 3.23 ± 0.076 |
| YGEAPTSPGFGVSSPGF [RPO21] | 3.06 ± 0.14 |
| YGEATSPFGAYGEAPTS [RPO21] | 2.48 ± 0.065 |
| YGESDIHFREHQSELII [YMR129W/POM152] | 2.31 ± 0.089 |
| YGIFGEGVEYSFLHVDD [POP8] | 2.25 ± 0.084 |
| YGIVAMAATATDKIGRS [FAS2] | 1.64 ± 0.063 |
| YGPPGTGKTLLAKAVAA [RPT4] | 2.17 ± 0.069 |
| YGSSPKLLATSTKIIML [SRB8] | 1.59 ± 0.065 |
| YHLHPTFANPNRTFTDP [TAF14] | 1.94 ± 0.068 |
| YHSAGGRDKHALSLLYH [SSN3] | 3.12 ± 0.082 |
| YHTNPGHSQFTSHYQNY [RPN4] | 2.82 ± 0.067 |
| YIELLPNADDIRDSIPQ [DIS3] | 2.83 ± 0.075 |
| YIHLAYSRSVDKEWVFA [SSN2] | 1.81 ± 0.079 |
| YIKSMDLISKKTKTSLL [RPR2] | 2.96 ± 0.081 |
| YINVNPQEETITFLIEK [ECM29] | 3.23 ± 0.095 |
| YIYLSHETLARSSEEIN [RPN3] | 3.15 ± 0.26 |
| YKAISAQADKQDISSST [FAS2] | 2.91 ± 0.073 |
| YKALRGMVSHKTARGKA [RPL16A] | 2.45 ± 0.08 |
| YKGMASNDERIVKRLYE [BRR2] | 3.33 ± 0.085 |
| YKKPTGGIVTVRSEMGE [FAS1] | 2.66 ± 0.13 |

| Sequence | protein stability index |
| --- | --- |
| YKLFIWLVVPTIYNLQH [YML031W/NDC1] | 1.36 ± 0.033 |
| YKVEHPFFARFKLRIQT [RPB11] | 2 ± 0.097 |
| YKVENVTLYWNNAKLLT [ESC2] | 1.71 ± 0.059 |
| YLAKLSKQLSLEEKKKR [IRR1] | 2.65 ± 0.098 |
| YLDQHKRTRLESLKNLN [SMC3] | 2.11 ± 0.097 |
| YLFDEIDAALDKQYRTA [SMC3] | 2.88 ± 0.091 |
| YLFHNDRIIHTWRTQLA [ECM29] | 1.55 ± 0.05 |
| YLKESKRKYDEITHPPS [SWI3] | 2.59 ± 0.17 |
| YLLEELESYLIVHHPYQ [SSN8] | 2.56 ± 0.058 |
| YLMTYPQQPMVKTKTIE [RET1] | 1.81 ± 0.099 |
| YLNGTLIGSIRFPTKFV [RET1] | 2.04 ± 0.075 |
| YLYCLDNNITEMLEENF [YCG1] | 2.3 ± 0.05 |
| YMEQGNNKIITLVKGPK [SKI6] | 2.76 ± 0.054 |
| YMHDTELNYFVGCKNLE [GRR1] | 2.92 ± 0.085 |
| YNEFLYSKAGREELERV [QCR8] | 2.86 ± 0.11 |
| YNNRSLLDFNTALKQYE [RPN6] | 3.32 ± 0.097 |
| YPDLKAFHNNLKFLYLL [MED1] | 2.06 ± 0.059 |
| YPMMHQVRNQVFMLDTK [RGR1] | 2.25 ± 0.08 |
| YPNSSKLKRNSDRREHD [LIN1] | 3.25 ± 0.083 |
| YQCAMGKQAIGAIAYNQ [RET1] | 2.55 ± 0.053 |
| YQISAYQTRARQKARTD [RPR2] | 2.19 ± 0.027 |
| YQLYTSNPSGNYTGWKA [PRE9] | 2.9 ± 0.065 |

| Sequence | protein stability index |
| --- | --- |
| YQMQSNYESVFTYNKFL [YIL149C/MLP2] | 1.29 ± 0.043 |
| YRTPGSSGVLSSNIAGT [SSN2] | 3.35 ± 0.12 |
| YSIPHPSENLLNIRIQT [RPC19] | 2.1 ± 0.098 |
| YSKAAEPHAVSLAWSAD [ASC1] | 2.81 ± 0.19 |
| YSKAKYPDLQPFVLAEN [CDC53] | 2.3 ± 0.095 |
| YSLQPSVDITGGPWFTD [RPC34] | 1.89 ± 0.079 |
| YSLRLINKEIFHHWLVE [SRB8] | 1.75 ± 0.064 |
| YSPNTLGHPDNYIPGNP [COB] | 2.52 ± 0.11 |
| YSTLKELLEYSDDIAEN [YCG1] | 2.81 ± 0.048 |
| YTKKHLSSHSSTNSNSK [RPN4] | 3.37 ± 0.14 |
| YTQQQALEYIGAKVKTM [RET1] | 1.97 ± 0.063 |
| YTVNVVDVFAMPQSGTG [RPN11] | 3.08 ± 0.088 |
| YTYLYVRMLASPMLYKV [BRR2] | 1.13 ± 0.12 |
| YVDPETTYTYQQPNPLQ [ROX3] | 2.33 ± 0.087 |
| YVMERPKNVPTSKWLNS [YDL116W/NUP84] | 2.61 ± 0.057 |
| YVNVAISIYNMLPPKSV [SSN2] | 1.71 ± 0.049 |
| YWSDKKADTDTLLYEQI [SNF5] | 2.55 ± 0.079 |
| YYGLVIDLLLLGQERAT [PRP8] | 1.76 ± 0.083 |
| YYLWTGKQVFSLLIKPN [RPO31] | 1.53 ± 0.21 |
| YYSRITLLRLNELLDLT [RPN5] | 2.61 ± 0.067 |
| YYVGQVMRNNESTETGY [DIS3] | 3.21 ± 0.069 |

Same assay, conditions: pdr5∆

| Sequence | protein stability index |
| --- | --- |
| YENKDNLTAGIIVAGYD [PRE3] | 2.91 ± 0.05 |
| YERRFGPYFVGPVVAGI [PUP3] | 2.81 ± 0.18 |
| YESQTFSSKNEWRKSAI [PRP8] | 3.28 ± 0.063 |
| YGEAPTSPGFGVSSPGF [RPO21] | 3.45 ± 0.14 |
| YGEATSPFGAYGEAPTS [RPO21] | 2.58 ± 0.049 |
| YGESDIHFREHQSELII [YMR129W/POM152] | 2.89 ± 0.096 |
| YGIFGEGVEYSFLHVDD [POP8] | 2.31 ± 0.072 |
| YGIVAMAATATDKIGRS [FAS2] | 1.82 ± 0.06 |
| YGPPGTGKTLLAKAVAA [RPT4] | 2.23 ± 0.06 |
| YGSSPKLLATSTKIIML [SRB8] | 1.7 ± 0.063 |
| YHLHPTFANPNRTFTDP [TAF14] | 2.02 ± 0.055 |
| YHSAGGRDKHALSLLYH [SSN3] | 3.02 ± 0.066 |
| YHTNPGHSQFTSHYQNY [RPN4] | 2.9 ± 0.089 |
| YIELLPNADDIRDSIPQ [DIS3] | 2.85 ± 0.068 |
| YIHLAYSRSVDKEWVFA [SSN2] | 1.5 ± 0.057 |
| YIKSMDLISKKTKTSLL [RPR2] | 2.66 ± 0.079 |
| YINVNPQEETITFLIEK [ECM29] | 2.96 ± 0.089 |
| YKAISAQADKQDISSST [FAS2] | 2.87 ± 0.058 |
| YKALRGMVSHKTARGKA [RPL16A] | 2.1 ± 0.06 |
| YKGMASNDERIVKRLYE [BRR2] | 3.47 ± 0.083 |
| YKKPTGGIVTVRSEMGE [FAS1] | 1.69 ± 0.069 |

| Sequence | protein stability index |
| --- | --- |
| YKLFIWLVVPTIYNLQH [YML031W/NDC1] | 1.51 ± 0.032 |
| YKVEHPFFARFKLRIQT [RPB11] | 1.28 ± 0.057 |
| YKVENVTLYWNNAKLLT [ESC2] | 1.99 ± 0.051 |
| YLAKLSKQLSLEEKKKR [IRR1] | 2.75 ± 0.085 |
| YLDQHKRTRLESLKNLN [SMC3] | 2.23 ± 0.083 |
| YLFDEIDAALDKQYRTA [SMC3] | 2.77 ± 0.097 |
| YLFHNDRIIHTWRTQLA [ECM29] | 1.77 ± 0.042 |
| YLKESKRKYDEITHPPS [SWI3] | 3.39 ± 0.15 |
| YLLEELESYLIVHHPYQ [SSN8] | 2.45 ± 0.06 |
| YLMTYPQQPMVKTKTIE [RET1] | 1.69 ± 0.15 |
| YLNGTLIGSIRFPTKFV [RET1] | 1.6 ± 0.053 |
| YLYCLDNNITEMLEENF [YCG1] | 2.32 ± 0.046 |
| YMEQGNNKIITLVKGPK [SKI6] | 3.11 ± 0.085 |
| YMHDTELNYFVGCKNLE [GRR1] | 2.78 ± 0.081 |
| YNEFLYSKAGREELERV [QCR8] | 2.73 ± 0.19 |
| YNNRSLLDFNTALKQYE [RPN6] | 3.04 ± 0.084 |
| YPDLKAFHNNLKFLYLL [MED1] | 2.04 ± 0.05 |
| YPMMHQVRNQVFMLDTK [RGR1] | 2.35 ± 0.08 |
| YPNSSKLKRNSDRREHD [LIN1] | 3.1 ± 0.067 |
| YQCAMGKQAIGAIAYNQ [RET1] | 2.76 ± 0.06 |
| YQISAYQTRARQKARTD [RPR2] | 2.31 ± 0.026 |

| Sequence | protein stability index |
| --- | --- |
| YQLYTSNPSGNYTGWKA [PRE9] | 3.08 ± 0.065 |
| YQMQSNYESVFTYNKFL [YIL149C/MLP2] | 1.23 ± 0.028 |
| YRTPGSSGVLSSNIAGT [SSN2] | 3.29 ± 0.1 |
| YSIPHPSENLLNIRIQT [RPC19] | 2.21 ± 0.078 |
| YSKAAEPHAVSLAWSAD [ASC1] | 2.87 ± 0.084 |
| YSKAKYPDLQPFVLAEN [CDC53] | 2.72 ± 0.063 |
| YSLQPSVDITGGPWFTD [RPC34] | 2.54 ± 0.12 |
| YSLRLINKEIFHHWLVE [SRB8] | 1.52 ± 0.081 |
| YSPNTLGHPDNYIPGNP [COB] | 2.27 ± 0.088 |
| YSSAPLRTVKEVQFGLF [RPO21] | 2.27 ± 0.2 |
| YSTLKELLEYSDDIAEN [YCG1] | 2.84 ± 0.053 |
| YTKKHLSSHSSTNSNSK [RPN4] | 3.11 ± 0.076 |
| YTQQQALEYIGAKVKTM [RET1] | 2.34 ± 0.072 |
| YTVNVVDVFAMPQSGTG [RPN11] | 3.28 ± 0.1 |
| YTYLYVRMLASPMLYKV [BRR2] | 1.19 ± 0.21 |
| YVDPETTYTYQQPNPLQ [ROX3] | 2.31 ± 0.099 |
| YVMERPKNVPTSKWLNS [YDL116W/NUP84] | 2.75 ± 0.055 |
| YVNVAISIYNMLPPKSV [SSN2] | 1.82 ± 0.043 |
| YWSDKKADTDTLLYEQI [SNF5] | 2.61 ± 0.069 |
| YYGLVIDLLLLGQERAT [PRP8] | 1.26 ± 0.053 |
| YYSRITLLRLNELLDLT [RPN5] | 1.77 ± 0.048 |

Source: the supplement of paper PMC9732359
